Experimental data taken from PMC9482650, “Quantitative fragmentomics allow affinity mapping of interactomes” (Nature Communications, 2022).
One block for each binder: values may come before it.

Experiments:
Assay in all cases: holdup assay
Design in all cases: key: below the threshold = too weak to quantify, mostly under pKd 3.1 to 4
TX1BP3, O14907 = target: T1, TX1BP3, O14907
T1 sequence (O14907 10-122, limits assumed, looked up): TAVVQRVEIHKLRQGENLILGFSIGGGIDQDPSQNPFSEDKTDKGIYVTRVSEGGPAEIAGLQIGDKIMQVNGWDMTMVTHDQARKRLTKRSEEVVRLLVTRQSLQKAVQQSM

SYNJ2BP, P57105 = target: T2, SYNJ2BP, P57105
T2 sequence (P57105 8-110, limits assumed, looked up): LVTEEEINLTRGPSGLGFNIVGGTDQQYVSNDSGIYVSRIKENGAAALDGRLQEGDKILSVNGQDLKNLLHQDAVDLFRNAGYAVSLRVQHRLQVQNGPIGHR

NHERF2_2, Q15599 = target: NHERF2_2, Q15599
ARHGAP21, Q5T5U3 = target: T3, ARHGAP21, Q5T5U3
T3 sequence (Q5T5U3 45-169, limits assumed, looked up): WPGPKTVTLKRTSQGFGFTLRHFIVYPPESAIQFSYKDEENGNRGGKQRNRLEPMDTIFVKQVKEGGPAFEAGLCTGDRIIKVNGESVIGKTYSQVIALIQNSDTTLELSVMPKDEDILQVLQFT

HTRA1, Q92743 = target: HTRA1, Q92743
DLG4_1, P78352 = target: DLG4_1, P78352
DLG4_2, P78352 = target: DLG4_2, P78352
APBA2_1, Q99767 = target: T4, APBA2_1, Q99767
T4 sequence (Q99767 563-664, limits assumed, looked up): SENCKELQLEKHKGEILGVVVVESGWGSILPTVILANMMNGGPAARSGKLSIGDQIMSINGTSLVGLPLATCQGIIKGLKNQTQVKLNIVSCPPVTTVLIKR

DLG3_2, Q92796 = target: T5, DLG3_2, Q92796
T5 sequence (Q92796 221-321, limits assumed, looked up): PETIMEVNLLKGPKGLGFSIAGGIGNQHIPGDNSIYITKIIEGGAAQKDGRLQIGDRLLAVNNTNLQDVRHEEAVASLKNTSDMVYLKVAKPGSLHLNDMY

GRIP2_6, Q9C0E4 = target: GRIP2_6, Q9C0E4
LIN7A, O14910 = target: T6, LIN7A, O14910
T6 sequence (O14910 103-200, limits assumed, looked up): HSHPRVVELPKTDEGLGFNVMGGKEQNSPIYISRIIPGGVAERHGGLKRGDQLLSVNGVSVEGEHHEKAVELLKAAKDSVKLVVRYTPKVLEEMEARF

MAST1, Q9Y2H9 = target: MAST1, Q9Y2H9
DLG2_2, Q15700 = target: DLG2_2, Q15700
PARD3_3, Q8TEW0 = target: PARD3_3, Q8TEW0
SNTG1, Q9NSN8 = target: T7, SNTG1, Q9NSN8
T7 sequence (Q9NSN8 52-150, limits assumed, looked up): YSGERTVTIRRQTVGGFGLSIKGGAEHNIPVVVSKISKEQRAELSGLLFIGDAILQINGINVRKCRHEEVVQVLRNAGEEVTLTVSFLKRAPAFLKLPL

RADIL, Q96JH8 = target: T8, RADIL, Q96JH8
T8 sequence (Q96JH8 971-1071, limits assumed, looked up): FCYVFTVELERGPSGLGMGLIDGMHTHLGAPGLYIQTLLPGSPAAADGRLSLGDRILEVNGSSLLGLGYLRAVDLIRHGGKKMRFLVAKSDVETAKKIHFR

LIMK2, P53671 = target: LIMK2, P53671
PTPN3, P26045 = target: PTPN3, P26045
SCRIB_1, Q14160 = target: SCRIB_1, Q14160
ARHGEF11, O15085 = target: T9, ARHGEF11, O15085
T9 sequence (O15085 42-136, limits assumed, looked up): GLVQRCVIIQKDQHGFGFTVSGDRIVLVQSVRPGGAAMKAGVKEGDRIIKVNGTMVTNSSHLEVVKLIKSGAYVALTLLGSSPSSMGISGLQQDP

PDZRN4_1, Q6ZMN7 = target: PDZRN4_1, Q6ZMN7
RAPGEF6, Q8TEU7 = target: T10, RAPGEF6, Q8TEU7
T10 sequence (Q8TEU7 525-625, limits assumed, looked up): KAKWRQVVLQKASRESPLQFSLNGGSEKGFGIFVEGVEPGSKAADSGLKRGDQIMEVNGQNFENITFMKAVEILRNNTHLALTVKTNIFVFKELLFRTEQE

DLG2_3, Q15700 = target: DLG2_3, Q15700
MAGI2_3, Q86UL8 = target: MAGI2_3, Q86UL8
MAGI1_1, Q96QZ7 = target: MAGI1_1, Q96QZ7
IL16_1, Q14005 = target: IL16_1, Q14005
GRIP2_3, Q9C0E4 = target: GRIP2_3, Q9C0E4
[1] = plain residues with an end cap or a label only (N-terminal biotin on a linker: ttds)
[2] = plain residues with an end cap or a label only (N-terminal biotin on a linker: ahx)

Chain of MAST1, Q9Y2H9 (Q9Y2H9 962-1065): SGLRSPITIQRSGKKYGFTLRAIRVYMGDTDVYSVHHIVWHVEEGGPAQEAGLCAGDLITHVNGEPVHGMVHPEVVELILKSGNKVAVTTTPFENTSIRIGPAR
Chain of IL16_1, Q14005 (Q14005 210-306): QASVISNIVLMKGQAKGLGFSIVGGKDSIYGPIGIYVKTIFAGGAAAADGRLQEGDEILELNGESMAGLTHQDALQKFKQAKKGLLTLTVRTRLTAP
Chain of PTPN3, P26045 (P26045 505-587): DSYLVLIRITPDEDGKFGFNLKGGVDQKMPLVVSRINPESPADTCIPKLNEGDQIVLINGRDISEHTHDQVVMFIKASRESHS
Chain of DLG4_2, P78352 (P78352 155-259): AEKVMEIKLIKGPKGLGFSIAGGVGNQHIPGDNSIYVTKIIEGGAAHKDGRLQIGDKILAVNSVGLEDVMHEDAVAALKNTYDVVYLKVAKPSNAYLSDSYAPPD
Chain of GRIP2_3, Q9C0E4 (Q9C0E4 238-339): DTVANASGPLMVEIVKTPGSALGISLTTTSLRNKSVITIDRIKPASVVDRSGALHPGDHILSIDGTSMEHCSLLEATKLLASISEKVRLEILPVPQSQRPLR
Chain of SCRIB_1, Q14160 (Q14160 718-814): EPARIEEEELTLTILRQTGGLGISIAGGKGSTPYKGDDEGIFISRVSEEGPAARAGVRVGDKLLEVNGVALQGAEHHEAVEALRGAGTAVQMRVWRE
Chain of NHERF2_2, Q15599 (Q15599 142-238): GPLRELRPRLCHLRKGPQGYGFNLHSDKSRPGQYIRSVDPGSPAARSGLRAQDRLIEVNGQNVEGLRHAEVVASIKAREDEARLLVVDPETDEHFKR
Chain of PARD3_3, Q8TEW0 (Q8TEW0 582-685): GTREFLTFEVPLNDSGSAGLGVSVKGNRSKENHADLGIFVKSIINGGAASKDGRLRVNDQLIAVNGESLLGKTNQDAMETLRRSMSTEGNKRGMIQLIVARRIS
Chain of MAGI1_1, Q96QZ7 (Q96QZ7 1-106): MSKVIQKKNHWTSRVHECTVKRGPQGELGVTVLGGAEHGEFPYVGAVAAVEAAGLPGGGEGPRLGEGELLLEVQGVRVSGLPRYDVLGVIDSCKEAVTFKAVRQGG
Chain of HTRA1, Q92743 (Q92743 360-477): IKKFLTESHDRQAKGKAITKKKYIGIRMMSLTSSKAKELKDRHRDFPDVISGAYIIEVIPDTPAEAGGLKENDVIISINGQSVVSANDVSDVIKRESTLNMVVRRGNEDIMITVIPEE
Chain of LIMK2, P53671 (P53671 143-248): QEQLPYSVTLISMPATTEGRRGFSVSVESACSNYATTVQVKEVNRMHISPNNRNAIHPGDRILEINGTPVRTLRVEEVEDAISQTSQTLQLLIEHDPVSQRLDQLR
Chain of GRIP2_6, Q9C0E4 (Q9C0E4 648-740): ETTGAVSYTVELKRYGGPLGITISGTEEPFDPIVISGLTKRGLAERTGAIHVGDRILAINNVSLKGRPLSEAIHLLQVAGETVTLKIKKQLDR
Chain of MAGI2_3, Q86UL8 (Q86UL8 600-682): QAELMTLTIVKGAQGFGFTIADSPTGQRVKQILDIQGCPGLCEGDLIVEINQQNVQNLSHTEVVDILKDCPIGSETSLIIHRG
Chain of DLG4_1, P78352 (P78352 62-152): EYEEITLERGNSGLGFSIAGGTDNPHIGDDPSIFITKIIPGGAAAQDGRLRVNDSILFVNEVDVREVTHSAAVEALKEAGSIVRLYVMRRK
Chain of PDZRN4_1, Q6ZMN7 (Q6ZMN7 213-318): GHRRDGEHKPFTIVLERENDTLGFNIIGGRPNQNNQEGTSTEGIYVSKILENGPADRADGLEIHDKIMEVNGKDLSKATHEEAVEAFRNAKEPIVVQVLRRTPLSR

pKd (TX1BP3, O14907; [1]): 4.44
pKd (SYNJ2BP, P57105; [1]): 5.2
pKd (NHERF2_2, Q15599; [1]): below the threshold
pKd (ARHGAP21, Q5T5U3; [1]): below the threshold
pKd (HTRA1, Q92743; [1]): below the threshold
pKd (DLG4_1, P78352; [1]): 5.21
pKd (DLG4_2, P78352; [1]): 5.77
pKd (APBA2_1, Q99767; [1]): below the threshold
pKd (DLG3_2, Q92796; [1]): 5.43
pKd (GRIP2_6, Q9C0E4; [1]): below the threshold
pKd (LIN7A, O14910; [1]): below the threshold
pKd (MAST1, Q9Y2H9; [1]): 4.33
pKd (DLG2_2, Q15700; [1]): 5.26
pKd (PARD3_3, Q8TEW0; [1]): below the threshold
pKd (SNTG1, Q9NSN8; [1]): 3.83
pKd (RADIL, Q96JH8; [1]): 3.82
pKd (LIMK2, P53671; [1]): below the threshold
pKd (PTPN3, P26045; [1]): 4.66
pKd (SCRIB_1, Q14160; [1]): 4
pKd (ARHGEF11, O15085; [1]): 4.23
pKd (PDZRN4_1, Q6ZMN7; [1]): 4.31
pKd (RAPGEF6, Q8TEU7; [1]): below the threshold
pKd (DLG2_3, Q15700; [1]): 5.21
pKd (MAGI2_3, Q86UL8; [1]): 4.5
pKd (MAGI1_1, Q96QZ7; [1]): below the threshold
pKd (IL16_1, Q14005; [1]): below the threshold
pKd (GRIP2_3, Q9C0E4; [1]): below the threshold
B1: NET1, Q7Z628 (peptide)
chain: SGGKRKETLV

pKd (TX1BP3, O14907; [2]): below the threshold
pKd (SYNJ2BP, P57105; [2]): below the threshold
pKd (NHERF2_2, Q15599; [2]): below the threshold
pKd (ARHGAP21, Q5T5U3; [2]): below the threshold
pKd (HTRA1, Q92743; [2]): below the threshold
pKd (DLG4_1, P78352; [2]): below the threshold
pKd (DLG4_2, P78352; [2]): below the threshold
pKd (APBA2_1, Q99767; [2]): below the threshold
pKd (DLG3_2, Q92796; [2]): below the threshold
pKd (GRIP2_6, Q9C0E4; [2]): below the threshold
pKd (LIN7A, O14910; [2]): below the threshold
pKd (MAST1, Q9Y2H9; [2]): below the threshold
pKd (DLG2_2, Q15700; [2]): below the threshold
pKd (PARD3_3, Q8TEW0; [2]): below the threshold
pKd (SNTG1, Q9NSN8; [2]): below the threshold
pKd (RADIL, Q96JH8; [2]): below the threshold
pKd (LIMK2, P53671; [2]): below the threshold
pKd (PTPN3, P26045; [2]): below the threshold
pKd (SCRIB_1, Q14160; [2]): below the threshold
pKd (ARHGEF11, O15085; [2]): below the threshold
pKd (PDZRN4_1, Q6ZMN7; [2]): below the threshold
pKd (RAPGEF6, Q8TEU7; [2]): below the threshold
pKd (DLG2_3, Q15700; [2]): below the threshold
pKd (MAGI2_3, Q86UL8; [2]): below the threshold
pKd (MAGI1_1, Q96QZ7; [2]): below the threshold
pKd (IL16_1, Q14005; [2]): below the threshold
pKd (GRIP2_3, Q9C0E4; [2]): below the threshold
B2: PDLIM2, Q96JY6 (peptide)
chain: SAPATLSSRA

pKd (TX1BP3, O14907; [2]): below the threshold
pKd (SYNJ2BP, P57105; [2]): 3.74
pKd (NHERF2_2, Q15599; [2]): below the threshold
pKd (ARHGAP21, Q5T5U3; [2]): below the threshold
pKd (HTRA1, Q92743; [2]): 3.94
pKd (DLG4_1, P78352; [2]): 3.6
pKd (DLG4_2, P78352; [2]): 4.05
pKd (APBA2_1, Q99767; [2]): below the threshold
pKd (DLG3_2, Q92796; [2]): 4
pKd (GRIP2_6, Q9C0E4; [2]): below the threshold
pKd (LIN7A, O14910; [2]): below the threshold
pKd (MAST1, Q9Y2H9; [2]): 4.05
pKd (DLG2_2, Q15700; [2]): 3.57
pKd (PARD3_3, Q8TEW0; [2]): below the threshold
pKd (SNTG1, Q9NSN8; [2]): 4.07
pKd (RADIL, Q96JH8; [2]): below the threshold
pKd (LIMK2, P53671; [2]): below the threshold
pKd (PTPN3, P26045; [2]): 4.3
pKd (SCRIB_1, Q14160; [2]): 3.65
pKd (ARHGEF11, O15085; [2]): 4.06
pKd (PDZRN4_1, Q6ZMN7; [2]): below the threshold
pKd (RAPGEF6, Q8TEU7; [2]): below the threshold
pKd (DLG2_3, Q15700; [2]): 3.63
pKd (MAGI2_3, Q86UL8; [2]): 4.15
pKd (MAGI1_1, Q96QZ7; [2]): below the threshold
pKd (IL16_1, Q14005; [2]): 4.23
pKd (GRIP2_3, Q9C0E4; [2]): below the threshold
B3: RAPGEF6, Q8TEU7 (peptide)
chain: ADENEQVSAV
